# Test results from paper PMC9785812 (Pharmaceutics, 2022).
# Where two headings read alike, the source gives them in different places.
# Assay: Ex vivo biodistribution in CA20948 xenograft mice
# Settings: mouse, iv
# Protocol: Quantification of activity was performed with an automated gamma counter equipped with a 3-in NaI(Tl) detector coupled to a multichannel analyzer (2480 Wizard^2, Perkin Elmer, Zaventem, Belgium). The results were corrected for background signal, physical decay during counting and detector dead time.
# Male NMRI nude mice (between 8 and 15 weeks old) were anesthetized with 2.5% isoflurane in O2 at a flow rate of 0.2 L min^−1 and subcutaneously injected on the right shoulder with 1 × 10^6 CA20948 cells resuspended in PBS with 30% matrigel®. Tumor dimensions were measured two or three times per week and volume was calculated as length × width × height. Mice were sacrificed if the tumor volume exceeded 600 mm^3 or if more than 10% of the original body weight was lost.
# Additionally, similar biodistribution studies were performed with free (unlabeled) [^153Sm]SmCl3 to identify the organs with ^153Sm accumulation in case of release from the complex. […] The mice were sacrificed by an overdose pentobarbital (200 µL of 60 mg/mL) 1, 4, 24 and 72 h post-injection (p.i.) (n = 3–4 per time point). Blood was collected via cardiac puncture. Organs of interest were collected in tared tubes and weighed. The activity in the different organs was measured in the gamma counter. For the calculation of the total activity in the blood, bone and muscle, the masses were assumed to be, respectively, 7, 12 and 40% of the total body mass. Data were expressed as a percentage of injected activity (%IA) and standardized uptake value (SUV). %IA was calculated as (counts per min (cpm) in organ)/(IA converted to cpm) × 100. SUV was calculated as (activity in cpm in organ/weight of organ in g)/(IA/total body weight in g).
# [1] = male, NMRI nude, bone, total radioactivity, read-out: Bone SUV
# [2] = male, NMRI nude, in vivo, total radioactivity, read-out: Excreted %IA
# [3] = male, NMRI nude, intestines, total radioactivity, read-out: Intestines %IA
# [4] = male, NMRI nude, kidneys, total radioactivity, read-out: Kidneys %IA
# [5] = male, NMRI nude, liver, total radioactivity, read-out: Liver %IA
# [6] = male, NMRI nude, muscle, total radioactivity, read-out: Muscle %IA
# [7] = male, NMRI nude, pancreas, total radioactivity, read-out: Pancreas %IA
# [8] = male, NMRI nude, pancreas, total radioactivity, read-out: Pancreas SUV
# [9] = male, NMRI nude, spleen, total radioactivity, read-out: Spleen SUV
# [10] = male, NMRI nude, stomach, total radioactivity, read-out: Stomach %IA
# [11] = male, NMRI nude, tumor, total radioactivity, read-out: Tumor %IA
structure (smiles),measurement,setting,value
"C[C@@H](O)[C@H](NC(=O)[C@@H]1CSSC[C@H](NC(=O)[C@@H](Cc2ccccc2)NC(=O)CN2CCN(CC(=O)O)CCN(CC(=O)O)CCN(CC(=O)O)CC2)C(=O)N[C@@H](Cc2ccc(O)cc2)C(=O)N[C@H](Cc2c[nH]c3ccccc23)C(=O)N[C@@H](CCCCN)C(=O)N[C@@H]([C@@H](C)O)C(=O)N1)C(=O)O [[^153Sm]Sm-DOTA-TATE, metal not drawn]",SUV at 1 h,"male, NMRI nude, blood, total radioactivity, read-out: Blood SUV",0.1 SUV
same,tissue uptake dose at 4 h,"male, NMRI nude, bone, total radioactivity, read-out: Bone %IA",0.5 ± 0.1 %ID
same,SUV at 1 h,[1],0.1 SUV
same,SUV at 4 h,[1],0.1 SUV
same,tissue uptake dose at 1 h,[2],80 ± 4.4 %ID
same,tissue uptake dose at 4 h,[2],83 ± 3.5 %ID
same,tissue uptake dose at 24 h,[2],94.1 ± 3.6 %ID
same,tissue uptake dose at 72 h,[2],96.6 ± 1.7 %ID
same,tissue uptake dose at 4 h,[3],4.4 ± 1.5 %ID
same,tissue uptake dose at 72 h,[3],0.1 %ID
same,SUV at 72 h,"male, NMRI nude, kidneys, total radioactivity",0.1 SUV
same,tissue uptake dose at 4 h,[4],2.4 ± 0.6 %ID
same,tissue uptake dose at 72 h,[4],0.1 %ID
same,SUV at 24 h,"male, NMRI nude, kidneys, total radioactivity, read-out: Kidneys SUV",0.3 ± 0.1 SUV
same,tissue uptake dose at 1 h,[5],0.4 ± 0.1 %ID
same,tissue uptake dose at 24 h,[5],0.1 %ID
same,SUV at 1 h,"male, NMRI nude, liver, total radioactivity, read-out: Liver SUV",0.1 SUV
same,tissue uptake dose at 1 h,"male, NMRI nude, lungs, total radioactivity, read-out: Lungs %IA",0.1 %ID
same,SUV at 1 h,"male, NMRI nude, lungs, total radioactivity, read-out: Lungs SUV",0.1 SUV
same,tissue uptake dose at 1 h,[6],1 ± 0.4 %ID
same,tissue uptake dose at 24 h,[6],0.1 %ID
same,SUV at 4 h,"male, NMRI nude, muscle, total radioactivity, read-out: Muscle SUV",0.1 SUV
same,tissue uptake dose at 1 h,[7],1 ± 0.1 %ID
same,tissue uptake dose at 4 h,[7],0.4 ± 0.3 %ID
same,tissue uptake dose at 24 h,[7],0.1 %ID
same,SUV at 4 h,[8],0.6 ± 0.4 SUV
same,SUV at 24 h,[8],0.1 SUV
same,SUV at 1 h,[9],0.1 SUV
same,SUV at 4 h,[9],0.1 SUV
same,tissue uptake dose at 1 h,[10],0.7 ± 0.1 %ID
same,tissue uptake dose at 4 h,[10],1 ± 0.3 %ID
same,tissue uptake dose at 72 h,[10],0.1 %ID
same,tissue uptake dose at 4 h,[11],6.1 ± 3.7 %ID
same,tissue uptake dose at 24 h,[11],3.2 ± 2.9 %ID
same,tissue uptake dose at 72 h,[11],2.2 ± 1.6 %ID
same,SUV at 4 h,"male, NMRI nude, tumor, total radioactivity, read-out: Tumor SUV",4.4 ± 1.1 SUV
same,tissue uptake dose at 4 h,"male, NMRI nude, whole blood, total radioactivity, read-out: Blood %IA",0.1 %ID
same,tissue uptake dose at 24 h,"bone, total radioactivity, 24 h p.i., CA20948 tumor bearing male NMRI-nude mice, ~2-3 MBq i.v., mean ± SD, n = 3-4, read-out: Bone %IA",0.2 ± 0.1 %ID
same,tissue uptake dose at 72 h,"bone, total radioactivity, 72 h p.i., CA20948 tumor bearing male NMRI-nude mice, ~2-3 MBq i.v., mean ± SD, n = 3-4, read-out: Bone %IA",0.2 %ID
same,Blood %IA,in vivo,0.0 ± 0.0 %IA
same,Blood SUV,in vivo,0.0 ± 0.0
same,Bone %IA,in vivo,0.4 ± 0.0 %IA
same,Bone SUV,in vivo,0.0 ± 0.0
same,Brain %IA,in vivo,0.0 ± 0.0 %IA
same,Brain SUV,in vivo,0.0 ± 0.0
same,Heart %IA,in vivo,0.0 ± 0.0 %IA
same,Heart SUV,in vivo,0.0 ± 0.0
same,Liver SUV,in vivo,0.0 ± 0.0
same,Lungs %IA,in vivo,0.0 ± 0.0 %IA
same,Lungs SUV,in vivo,0.0 ± 0.0
same,Muscle %IA,in vivo,0.0 ± 0.0 %IA
same,Muscle SUV,in vivo,0.0 ± 0.0
same,Pancreas %IA,in vivo,0.0 ± 0.0 %IA
same,Pancreas SUV,in vivo,0.0 ± 0.0
same,Spleen %IA,in vivo,0.0 ± 0.0 %IA
same,Spleen SUV,in vivo,0.0 ± 0.0
same,tissue uptake dose at 1 h,"intestines, total radioactivity, 1 h p.i., CA20948 tumor bearing male NMRI-nude mice, ~2-3 MBq i.v., mean ± SD, n = 3-4, read-out: Intestines %IA",2 ± 0.3 %ID
same,tissue uptake dose at 24 h,"intestines, total radioactivity, 24 h p.i., CA20948 tumor bearing male NMRI-nude mice, ~2-3 MBq i.v., mean ± SD, n = 3-4, read-out: Intestines %IA",0.6 ± 0.2 %ID
same,tissue uptake dose at 1 h,"total radioactivity, 1 h p.i., CA20948 tumor bearing male NMRI-nude mice, ~2-3 MBq i.v., mean ± SD, n = 3-4, read-out: Tumor %IA",3.7 ± 2 %ID
same,tissue uptake dose at 24 h,"kidneys, total radioactivity, 24 h p.i., CA20948 tumor bearing male NMRI-nude mice, ~2-3 MBq i.v., mean ± SD, n = 3-4, read-out: Kidneys %IA",0.5 ± 0.2 %ID
same,tissue uptake dose at 4 h,"liver, total radioactivity, 4 h p.i., CA20948 tumor bearing male NMRI-nude mice, ~2-3 MBq i.v., mean ± SD, n = 3-4, read-out: Liver %IA",0.2 %ID
same,tissue uptake dose at 72 h,"liver, total radioactivity, 72 h p.i., CA20948 tumor bearing male NMRI-nude mice, ~2-3 MBq i.v., mean ± SD, n = 3-4, read-out: Liver %IA",0.2 %ID
same,SUV at 1 h,"muscle, total radioactivity, 1 h p.i., CA20948 tumor bearing male NMRI-nude mice, ~2-3 MBq i.v., mean ± SD, n = 3-4, read-out: Muscle SUV",0.2 ± 0.1 SUV
same,tissue uptake dose at 4 h,"muscle, total radioactivity, 4 h p.i., CA20948 tumor bearing male NMRI-nude mice, ~2-3 MBq i.v., mean ± SD, n = 3-4, read-out: Muscle %IA",0.4 ± 0.2 %ID
same,SUV at 1 h,"pancreas, total radioactivity, 1 h p.i., CA20948 tumor bearing male NMRI-nude mice, ~2-3 MBq i.v., mean ± SD, n = 3-4, read-out: Pancreas SUV",1.2 ± 0.2 SUV
same,tissue uptake dose at 24 h,"stomach, total radioactivity, 24 h p.i., CA20948 tumor bearing male NMRI-nude mice, ~2-3 MBq i.v., mean ± SD, n = 3-4, read-out: Stomach %IA",0.3 ± 0.2 %ID
same,tissue uptake dose at 1 h,"whole blood, total radioactivity, 1 h p.i., CA20948 tumor bearing male NMRI-nude mice, ~2-3 MBq i.v., mean ± SD, n = 3-4, read-out: Blood %IA",0.7 ± 0.2 %ID
